This note sets out measurements from patent US7799901B2, “Modulators of the function of FAS receptors and other proteins” (Yeda Research and Development Co. Ltd., priority 1995, dated 2010).

One test addresses T1, MACHβ1 (Homo sapiens, UniProt Q14790).
T1 construct: a construct encoding only the ORF-B (MACH B) region; expressed in transfected cells; host or cells: SFY526 yeast
Briefly: Two-hybrid β-galactosidase filter assay (FIG. 5), binding to MACHβ1. The settings on record: two hybrid test. The procedure:
The yeast two-hybrid test was further applied to evaluate the specificity of binding of MACH to MORT-1, in particular, to define the region in MORT-1 to which MACH binds, as well as to determine which of the MACH ORFs interacts with MORT-1, the procedures being as set forth herein above in Examples 1 and 2. Briefly, various MORT-1 and MACH constructs were prepared for testing the interaction of the proteins encoded by the Gal4 DNA-binding domain and activation domain constructs within transfected SFY526 yeast cells as assessed by the β-galactosidase expression filter assay. The DNA-binding domain constructs were prepared in pGBT9 vectors and the activation domain constructs were prepared in pGAD-GM vectors. For the activation domain constructs, the full-length MACH cDNA was used (MACH), as was a construct encoding only the ORF-B (MACH B) region. Control activation domain constructs were those containing the full-length MORT-1 coding sequence (MORT 1, positive control) and those having no inserts, i.e., “empty” vectors (pGAD-GM). For the DNA-binding domain constructs, the full-length MORT-1 cDNA was used (MORT 1), as were constructs encoding only the MORT-1 […] (MORT-1DD aa 130-245). […] In the assay, the development of color was determined, where the greater the color development, the greater the interaction between the constructs encoded by the DNA-binding domain and activation domain; Color development was depicted by symbols, where “+++” and “+” indicate the development of a strong color within 30 and 90 min. of the assay, respectively, and “−−−” indicates the lack of development of color within 24 hrs. of the assay. […]
In FIG. 5, there is shown the results of the interaction of MORT-1 and MACH within transfected yeast cells. […] Their interaction was assessed by a β-galactosidase expression filter assay as described in Boldin et al (1995b). […]

Test [1] deals with human embryonic kidney 293-EBNA cells. Description: Cell death on overexpression of MACH isoforms in 293-EBNA cells. In kind it is cell-based. The settings on record: β-galactosidase-expressing cells with apoptopic morphology, 20 h after transfection. The procedure: To explore the involvement of MACH in cell-death induction, the effect of overexpression of various MACH isoforms on cell viability was examined. The test was performed by transfecting MACH expression vectors together with a β-galactosidase expression vector as a transfection marker into human embryonic kidney 293-EBNA cells and breast carcinoma MCF7 cells.
In brief, 293-EBNA cells, MCF7 human breast carcinoma cells and HeLa HtTA-1 cells were grown in Dulbecco's modified Eagle's minimal essential medium supplemented with 10% fetal calf serum, nonessential amino acids, 100 U/ml penicillin and 100 μg/ml streptomycin. Cell tissue culture dishes (5×10^5 293-EBNA cells, 3×10^5 s MCF7 cells or 3×10^5 HeLa cells in 6-cm dishes) were transiently transfected, using the calcium phosphate precipitation method, with the cDNAs of the indicated proteins together with the β-galactosidase expression vector. In the experiments presented in FIGS. 14A-D and 15, each dish was transfected with 3.5 μg of the indicated MACH construct and 1.5 μg of pSV-β-gal. In the experiments presented in FIGS. 16A-D and 17-19, each dish was transfected with 2.5 μg of the indicated MACH or MORT1 construct (or, as control, empty vector) and 1.5 μg of pSV-β-gal. The cells were rinsed 6 to 10 h after transfection. The 293-EBNA and MCF7 cells were incubated for a further 18 h without additional treatment. The HeLa cells were incubated for 26 h after transfection and-then for 5 h in the presence of either anti-Fas.APO1 antibody (CH11, 0.5 μg/ml) or TNF (100 ng/ml), together with cycloheximide (10 μg/ml). The extent of cell death at the end of the incubation periods was assessed by determination of β-galactosidase expression, as described by Kumar et al, 1994.
In particular, FIGS. 14A-D show the morphology of human embryonic kidney 293-EBNA cells transiently expressing the indicated MACH isoforms. The arrows (FIG. 14B) point to apoptopic cells. Photographs were taken 26 h after transfection. […] Data are from three independent experiments with the 293-EBNA cells and two independent experiments with the MCF7 cells.

Take “MACHα1: MACH isoform, cDNA SEQ ID NO: 14, amino acid SEQ ID NO: 7; contains CED3/ICE homology region”: the “binding to MACHβ1 in transfected yeast” value with MACHβ1 was “scored clearly positive”. The “cell death of transfected 293-EBNA cells” value in test [1] is given as “massive cell death”.

B1: MACHα1 (C360S): MACHα1 mutant in which the catalytic cysteine Cys360 is replaced by Ser (protein)
chain: MDFSRNLYDIGEQLDSEDLASLKFLSLDYIPQRKQEPIKDALMLFQRLQEKRMLEESNLSFLKELLFRINRLDLLITYLNTRKEEMERELQTPGRAQISAYRVMLYQISEEVSRSELRSFKFLLQEEISKCKLDDDMNLLDIFIEMEKRVILGEGKLDILKRVCAQINKSLLKIINDYEEFSKERSSSLEGSPDEFSNGEELCGVMTISDSPREQDSESQTLDKVYQMKSKPRGYCLIINNHNFAKAREKVPKLHSIRDRNGTHLDAGALTTTFEELHFEIKPHDDCTVEQIYEILKIYQLMDHSNMDCFICCILSHGDKGIIYGTDGQEAPIYELTSQFTGLKCPSLAGKPKVFFIQASQGDNYQKGIPVETDSEEQPYLEMDLSSPQTRYIPDEADFLLGMATVNNCVSYRNPAEGTWYIQSLCQSLRERCPRGDDILTILTEVNYEVSNKDDKKNMGKQMPQPTFTLRKKLVFPSD
Turning to B1, the “binding to MACHβ1 in transfected yeast” value with MACHβ1 is recorded as “bound”. For the same molecule, the “cell death of transfected 293-EBNA cells” value in test [1] is “No death”.

B2: MACHβ1: MACH isoform, cDNA SEQ ID NO: 4, amino acid SEQ ID NO: 5; lacks the CED3/ICE homology region (protein)
chain: MDFSRNLYDIGEQLDSEDLASLKFLSLDYIPQRKQEPIKDALMLFQRLQEKRMLEESNLSFLKELLFRINRLDLLITYLNTRKEEMERELQTPGRAQISAYRVMLYQISEEVSRSELRSFKFLLQEEISKCKLDDDMNLLDIFIEMEKRVILGEGKLDILKRVCAQINKSLLKIINDYEEFSKERSSSLEGSPDEFSNDFGQSLPNEKQTSGILSDHQQSQFCKSTGESAQTSQH
Regarding B2, the “binding to MACHβ1 in transfected yeast” value with MACHβ1 is reported as “self-associated”. Besides, the “cell death of transfected 293-EBNA cells” value in test [1] is on record as “some slight cell death”.
